Biological target: cell surface of 293 AAV cells (the filing names αvβ3 and αvβ5 integrins as the receptors of RGD4C)
Assay: 200000 TU/cell incubated 1 h on ice with 293AAV cells; unbound particles recovered from the medium, titrated on TG1 E. coli and counted as colonies; value relative to its control

“M13.PAAV vector (non-targeted phagemid/AAV particle lacking RGD4C) (from UniProt P69168 19-424)” gave a binding efficiency (percentage of vectors bound to the cell surface) of 7.1%.

With “RGD.PAAV vector (RGD4C-targeted phagemid/AAV particle displaying the RGD4C peptide on the pIII minor coat protein)” the binding efficiency (percentage of vectors bound to the cell surface) was 58.2%.

From patent US20200239535A1
